Measured values published in doi:10.1101/585463.

What was measured:
[1] = biological target: fully glycosylated CmeA (g2CmeA) (Campylobacter jejuni) (UniProt Q0PBE3); assay: SPR
[2] = biological target: non-glycosylated CmeA (g0CmeA), periplasmic fusion protein of the CmeABC multidrug efflux pump (Campylobacter jejuni) (UniProt Q0PBE3); assay: SPR

**Q.** With “CmeC, outer membrane associated channel of the CmeABC multidrug efflux pump (natural protein)” as the substance, how does the Kd [1] read?
**A.** 0.005 µM

**Q.** What about the koff [1] of the same substance?
**A.** 0.00075 s⁻¹

**Q.** And the kon [1]?
**A.** 150000 M⁻¹ s⁻¹

**Q.** And the Kd [2]?
**A.** 0.017 µM

**Q.** And the koff [2]?
**A.** 0.0009 s⁻¹

**Q.** And the kon [2]?
**A.** 50000 M⁻¹ s⁻¹
